Data reported in the nanobody polyreactivity screen of Harvey et al. (2022).

Experiment: yeast display, Sf9 membrane polyspecificity reagent, FACS + sequencing; frameworks hold sequencing errors
Outline: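 Galactose-induced (36–48 hours) yeast carrying a synthetic nanobody display library were exposed to 10% biotinylated, detergent-solubilized Sf9 membrane reagent at 4 °C for 1 hour. FACS followed streptavidin microbead enrichment, using low and high (top ~1%) gates for expression (anti-HA) and reagent binding (streptavidin). Colony PCR, MiSeq 2 × 250 sequencing and CDR-length filtering followed. Labels for polyreactivity reflect the gate of origin.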

Row | Sequence | polyreactivity (PSR sort gate)
1 | QVQLVESGGGLVQAGGSLRLSCAASGSIIGRNAMGWYRQAPGKERELVAAISTRGGRTYYADSVKGRFTISRDNAKNTVYLQMNSLKPEDTAVYYCADTYQYLKSGYYWGQGTQVTVSS | high polyreactivity
2 | QVQLVESGGGLVQARGSLRLSCAASGRTISYNVMGWYRQAPGKERELVAAITWTGGSTYYADSVKGRFTISRDNAKNTVYLLMNSLKPEDTAVYYCNAAKPYAYWVPNDYWGQGTQVTVSS | low polyreactivity
3 | QVQLVESGGGLVQAGGSLRLSCAASGSIFGYKAMGWYRQAPRKERELVAAIRSSDSRTHYADSVKGRFTISRDNAKNTVYLQMNRLKPEDTAVYYCAAVKRRPGHYLYDYWGQGTQVTVSS | low polyreactivity
4 | QVQLVESGGGLVQAGGSLRLSCAASGSTGYYAMGWYRQAPGKERELVAAISYRGASTYYADSVKGRFTISRDNAKNTVYLQMNSLKPEDTAVYYCAALRQERVKYGYWGQGTQVTVSS | high polyreactivity
5 | QVQLVESGGGLVQAGGSLRLSCAASGSIFGIYTMGWYRQAPGKERELVAAITSVGSTNYADSVKGRFTISRDNAKNTVYLQMNSLKPEDTAGYYCARASAWYVTLVGKYTKYDYWGQGTQVTVSS | low polyreactivity
6 | QVQLVESGGGLVQAGGSLRLSCAASGRIFTTYVMGCYRQAPGKERELVAAISWSGGNTYYADSVKGRFTISRDNAKNTVYLQMNSLKPEDTAVYYCNAVGTIREGDYWGQGTQVTVSS | low polyreactivity
7 | QVQLVESRGGLVQAGGSLRLSCAASGSTFRYYAMGWYRQAPGKERELVATITARGGSTYADSVKGRFTISRDNAKNTVYLQMNSLKPEDTAVYYCAKRYGRYWDSTYSGDYDYWGQGTQVTVSS | high polyreactivity
8 | QVQLVESGGGLFQAGGSLRLSCAASGRIFAYNTMGWYRQAPAKERELVAVITSGGSTNYADSVKGRFTISRDNAKNTVYLQLNSLKAEDTAVYYCAKRPYGRSGGSRYDYWGQGTQVTVSS | high polyreactivity
9 | QVQLVESGGGIVQAGGSLRLSSAASGSTFYTKSIGWYIQAPGKERELVAAISGSGGSTYYADSVKGRFTISRDTAKNTVYLQMISLKPEDTAVYSCAARSRYYDTRFDYWGQGTQVTVSS | low polyreactivity
10 | QVQLVESGGGLVQAGGSLRLSCAASGFTFASNCMGWYRQAPGKERELVAVIDWSDDSTYYADSVKGRFTISRDNAKNTVYLQMNSLKPEDTAVYYCKADVWWGGYDYWGQGTQVNVSS | low polyreactivity
11 | QVQLVESGGGLVQAGGSLRLSCAASGSTFTINAKGWYRQATGKETELVAAITDSAGNTYYADSVKGRFTISRDNAKNTVYLQMNSLKPEDTAVYYCAAAWPSTGLLYVLGYSGYGYWGQGTQVTVSS | low polyreactivity
12 | QVQLVESGGCLVHAGGSHRLRCAASGSTFSRYAMGWYRHAPGKERELVAAISSSGGSTYYADSVKGRFTISRDNAKNTVYLQMNSLKPEDTAVYYCAARIWRTRRYDYWGQGTQVTVSS | high polyreactivity
13 | QVQLVESGVGLVQAGGSLRLSCAASGSIFQSYDMGWYRQAPGKERELVAAISWSGSTTYYADSVKGRFTISRDNAKNTVYLQMNSLKPEDTAVYYCAVDSNPPDWWAVIYGFWGQGTQVTVSS | low polyreactivity
14 | QVQLVESGGGLVQAGGSLRLSCAASGSTFTGYTMGWYRQAPGKERELVASIRTYYADSVKGRFTISRDNAKNTVYLQMNSLKPEDTAVYYCAAKPGRYADYDYNSWGQGTQVTVSS | low polyreactivity
15 | QVQLVESGGGLVQAGGSLRLSCAASGRIFYQNALGWYRQAPGKERELVADITSGGSTYYADSVKGRFTISRDNAKNTVYLQMNSLKPEDTAVYDCNTPSGPGTVGSYRRKWYGYWGQGTQVTVSS | low polyreactivity
16 | QVQLVESGGGLVQAGGSLRLSCATGSIFGYNAMGWYRQAPGKERELVAAITSGGSTYYADSVKGRFTISRDNAKNTVYLQMNSLKPEDTAVYYCNRDDYNTAYRDASGYWGQGTQVTVSS | low polyreactivity
17 | QVKLVESGGGLVQAGGSLRLSCAASGSTFLYYGMGWYRQAPGTERELVATITWRGGRTYYADSVKGRFTISRDNAKNTVYLQMNSLKPEDTAVYYCAARVVGSYRKPYPYGLYYWGQGTQVTVSS | high polyreactivity
18 | QVQLVESGGCLVQAGGSLRLSCAASVRTYETNAKGWYIQAPGKEREFVAAISSSGASTYYADSVKGSFTISRYNAKNTVYLQMNSLKTEDTAVYYCAARRREWGQGTQVTVSS | low polyreactivity
19 | QVQLVESGGGLVQAGGSLRLSCAASGRTFANYAMGWYRQAPGKERELVAAISVSTVSTYYADSVKGRFTISRDNAKNTVYLQMNSLKPEDTAVYYCAATSPYKYWYRYNYWGQGTQVTVSS | high polyreactivity
20 | QVQREESGGGLFQAGGTLRLSCAASGFTFVWYAMGWNRQATGKERELVAAITRSGGSTYYADSVKGRFTISRDNAKNTVYLQMNSLKPEDTAVYYCNVSYGTFPGRALFANNFYYWGQGTQVTVSS | low polyreactivity
21 | QVQLVESGVGLVQAGGSLRLSSAASGFTFIYYAMGWYRQAPGKERELVAAITSGGNTYYADSVKGRFTISRDNAKNTDYLQMNSLTPEDPAVYYCNKVPHREWVGGYDYWGQGTQVTVSS | low polyreactivity
22 | QVQLVESGGGLVQAAGSLRLSFAASGGIFSYYVMGWYRQAPGKEREFVASITQRGRTYYADSVKGRFTISRDNAKNTVYLQMNSLKPEDTAVYYCAAGIYAFRRHREEYDYWGQGTQVTVSS | high polyreactivity

Row | Sequence | polyreactivity (PSR sort gate)
23 | QVQLVESGGGLVQAGVSLRISCAASGFTFPEYDMGWYRQAPGKERELVATISGNGGRTYYADSVKGRFTISRYNAKNTVYLQMNSLKPEDTAVYYCAALLYIRSVVYDYWGQGTQVTVSS | low polyreactivity
24 | QVQLGESGGGLVQAGGSLRLSCAASGLILYGYAMGLYRPAPGKERELVATITIGGSTYYADSVKGRFTISRDNAKNTVYLQMNRLNPEDTAVYYCAAEDTLAGSVARFGEYDYWGQGSQVTVSS | low polyreactivity
25 | EEELVESGGGLVQAGGSSLRLSCAASGFIFVSNAMGWYRQAPGKERELVASIRWSDGSTFYADSVKGRFTISRDNAKNTVYLQMNSLKPEDTAVYYCNAVYEHRRVGWVTIDYGYWGQGTQVTVSS | low polyreactivity
26 | QVQLVESGGGLVQAGGSLRLSCAASGRIFSYYAMGWYRQAPWKERELVAAISSSGGSTYYADSVKGRFTISRDNAKNTVYLQMNSLKPEDTEVYYCAKLLYGFGRYGYWGQGTQVTVSS | high polyreactivity
27 | QVQLVESGGGLVQAGGSLRLSCAASGSILSGYAMGWYRQAPGKETELVAAITSGGDTNYADSVKGRFTISRDNAKNTVYLQMNSLKPEDTAVYYCNRRGDFRIAYYDPMDYWGQGTQVTVSS | low polyreactivity
28 | QVQLVESGGGLVQAGGSLRLSCAASGRIFYSNAMGWYRQAPGKERELVAAITGSGGRTHYADSVKGRFTISRDNAKNTVYLQMNSLKPEDTAVYYCAKDGYFPEFDYWGQGTKVTVSS | high polyreactivity
29 | QFQLVESGGGLVQAGGSLRLSCAASGRTFYQYTMGWYRQAPGKERELVAAITTSTGNTYYADSVKGRFTISRDNAKNTVYLQLNSLKPEDTAVYYCAAEPPTYKLLDYWGQGTQVTVSS | low polyreactivity
30 | QVQLVESGGGLVQAGGSLRISCAASGRTFYDNTMGWYRQAPGKERELVAAINWSGTRTYYADSVKARFTISRDNAKNTVYLQMNSLKPEDTAVYYCAADGPFRRTYGYWGLGTQVTVSS | low polyreactivity
31 | QVQHVESGGGLVQAGGSIRLSGAASGRIILGYDMGWYRQPPGKDRELVAAINSVASTNYADSVKGRFTISRDNAKNTVYLQMNSLKPEDTAVYYCAAVYFLVEADLPAYDYWGQGTQVTVSS | low polyreactivity
32 | QVQLVESGGGLVQAGGSLRLSCAASGFNFLTYAMGWYRQATGKESELVAAISSSGGRTTYADSVKGRFTISRDNAKNTVYLQMNSLKPEDTAVYYCAVEDYTIVLDYESWGQGTQVTVSS | high polyreactivity
33 | QVQLVESGGGLVQAGGSLRLSCAASGSTFPSYAMGWYRPAPGKERELVAAINSGGGTNYADSVKGRFTISRDNAKNTVYLQMNSLKPEDTAVYYCAKSRYDYTKTEGGYWGQGTQVTVSS | low polyreactivity
34 | QVQLVESGGGLVQAGGSLRLSCAASGFTFRAYAMGWYRQAPGKERELVAAISWGGGSTYYADSVKGRFTISRDNAKNTVYLQMNSLKPEDTAVYYCATERRRYNTEYEYWGQGTQVTVSS | high polyreactivity
35 | QVQLVESGGGLVQAGGSLRLSCAASGRIFSAYAIGCYRQSPWKERELVSAISRSGGRTYYADSVKGSFTISRDNAKNTVYLQMNSLKPEDTAVYYCAAARFAIVRGDYCGQGTQVTVSS | high polyreactivity
36 | QVQLVESGGGLVQAGGSLRLSCAASGFIISVYAMGWYRQAPGKERELVARIDSGGSTYYADSVKGRFTISRDNAKNTVYLQMNSLKPEDTAVYYCATDEGTVGGQQLRPLMDYWGQGTQVTVSS | low polyreactivity
37 | QVQLVESGGGLVQAGGSLRLSCAASGYTFVYNGMGWYRQAPGKERELVAAITWGGAGTYYADSVKGRFTISRDNAKNTVYLQMISLKPEDTSVYYCAPPSPRSRAYTYRGDYWGQGTQVTVSS | low polyreactivity
38 | QVQLVESGGGLVQAGGSLRLICAASGSIFRLNTMGWYRQAPGKERELVAAIFTSGGSTYADSVKGRFTISRDNAKNTVYLQMNSLKPEDTAVYYCAGMDYWGQGTQVTVSS | low polyreactivity
39 | QIQLVESGGGLVQAGGILRISCAASGRTFGSNTMGWSRQAPGKERELVAAISGTGTSTYYADSVKGRFTISRDNAKNTVYLQMNILKPEDTAVFYCAAGWYKYLFQPHDYWGQGTQVTVSS | low polyreactivity
40 | QVQLVESGGGLVQAGGTLRLSCAASGSIFLINAMGWYRPAPGKERELVAAISRSGGRTYYADSVKGRFTISRDNAKNTVYLQMNSLKPEDTAVYYCAVPSIYYAGRAYDYWGQGTQVSVSS | high polyreactivity
41 | QVQLVESGGGLVQAGGSLRLSCAASGSTFPLYAMGWYRQAPGKERELVAAITWSGANTYYADSVKGRFTISRDNAKNTVYLQMNSLKPEDTAVYYCAALYYWDQPQLEFSYWGQGTQVTVSS | low polyreactivity
42 | QVQLVESGGGLVQAGGSLRLSCAASGRIFVSYAMGWYRQAPGKERELVATINIGSDTYYADSVKGRFTISRDNAKNTVYLQMNSLKPEDTAVYYCAKDYYEGDSYPYPGYEYWGQGTQVTVSS | low polyreactivity
43 | QVQLVESGGGLVQAGGSLRLSCAASGFTFRSNMGWYRQAPGKEREFVAAITKSGGSTYYADSVKGRFTISRDNAKNTVYLQMNSLKPEDTAVYYCATKVDTYVFRYYYWGQGTQVTVSS | high polyreactivity
